Tested on: MS2 coat protein
Experiment: apparent KD of MS2 coat protein; designed switch direction (-1 OFF switch, 1 ON switch): -1; higher = weaker reporter binding
In short: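 The apparent KD reported per design is the median over clusters of curve fits to normalised cluster fluorescence. The RNA switches were transcribed on Illumina chips by stalled E. coli RNA polymerase. SNAP-549-labelled MS2 coat protein was titrated from 0.7 or 1.5 nM, doubling up to 3 µM, in Tris-HCl pH 7.5 buffer containing KCl, MgCl2, BSA, DTT, tRNA and Tween-20, with no input, 200 uM small-molecule ligand, or an oligonucleotide input.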

[1] = input ligand: microRNA oligo, concentration not stated
[2] = Eterna round: R95, input ligand: microRNA oligo, concentration not stated
[3] = Eterna round: R95, input ligand: FMN 200 uM
[4] = Eterna round: R95, input ligand: none

Sequence | apparent KD of MS2 coat protein (input ligand: FMN 200 uM) [nM] | apparent KD of MS2 coat protein [1] [nM] | apparent KD of MS2 coat protein (input ligand: none) [nM] | apparent KD of MS2 coat protein [2] [nM] | apparent KD of MS2 coat protein [3] [nM] | apparent KD of MS2 coat protein [4] [nM]
UCACGGGACUGAGGAUAUACAUCAACCAUGGUUGUAGAAGGCAGAAGGUUGGAUCAUAUACUAAACAUGAGGAUCACCCAUGUU [JR_ExcNG1_Sub030] (Eterna round: R96, puzzle: Exclusion NG 1) | 23.6 | 19.9 | 20.7 | – | – | –
AGUCAGGCGGUAGGAUAUCCAAACCGAGUGACCCUCUCAUAACAUGAGGAUCACCCAUGUCGGUGGGAGAAGGGCCGUACGGCG [Atra] (Eterna round: R96, puzzle: Exclusion NG 2) | 206 | 90 | 117 | – | – | –
AGUAUGCGAGGAUAUACAUGAGGAUCACCCAUGUGAGAGAUAAAAGUGAGAAAGACAAGUAGAAGGCGCGUACA [JL Lego Mod 23] (Eterna round: R96, puzzle: Exclusion 3) | 413 | 41.9 | 81.1 | – | – | –
GCCGUACAAGGAUAUCUAUCGCAAAACAUGAGGAUCACCCAUGUGUAUCCUAACCGGCGAAGAGAAGGUGUAGUUA [Letelabe] (Eterna round: R97, puzzle: Exclusion 5) | 24.4 | – | 18.1 | – | – | –
AAUUAUUAUCGAGGAUAUCGUAUUGAAAUAAUAUGAGAAGGCGGGAUAAACAUGAGGAUCACCCAUGUGAGCCUGAUGCUUGUG [Ex NG1 #38] (Eterna round: R96, puzzle: Exclusion NG 1) | – | 14.9 | – | – | – | –
CUGAUGUGAGGAUAUCUAAAAGAAACUGGGCAAAAUACCAGAGAGAAGGCACAUGAGGAUCACCCAUGUAACGA [Rabigeri] (puzzle: Exclusion 4) | – | – | – | 19.5 | – | –
AUUUAGAGAGGAUAUAUAAAGUGAAACAUGAGGAUCACCCAUGUAAUUUUAUGGAUGUAAAUAGAAGGCUCAUUUU [Mat - Exclusion 5 - JL mod - D3] (puzzle: Exclusion 5) | – | – | – | 36.5 | – | –
AGAUCUAGGACAGGAUAUACGGAUGUCUUCAUCGAAGAUGAAGACAUCACAUGAGGAUCACCCAUGUAGAAGGGUCCUAGAUCA [Omei Exc(NG) 2A] (Eterna round: R96, puzzle: Exclusion NG 2) | 12.3 | 10.9 | 14.3 | – | – | –
UAGAUGGGAGGAUAUGCGUAGAUGCAGGUUCGUGUGGUGCUACAUGAGGAUCACCCAUGUAGAAGGCCCGUCUU [Mod 7 R3 JL-ex2-2.29 - Jieux - Exclusion 2] (Eterna round: R97, puzzle: Exclusion 2) | 20.7 | – | 17.6 | – | – | –
AUAUUUAGCUUUUUGUGAAACAUGAGGAUCACCCAUGUCCUCAUAACUGGACAUUUAAGUCUAGAAGCUCGUCUUAU [Last end dangle 3] (Eterna round: R97, puzzle: Sensor, turn-off variant 1) | 475 | – | 553 | – | – | –
GUCCUCAUGACAUGAGGAUCACCCAUGUAUUAUUUGUUAACUGAGGAUAUACUCUUAAUUUUUAUGUAGAAGGCAGAUUCGGUC [JR_ExcNG3_Sub020] (Eterna round: R96, puzzle: Exclusion NG 3) | – | 24.8 | – | – | – | –
AAUACAAGCUAUUGAUCCCACAUGAGGAUCACCCAUGUAUAUGCCCGUGACACGUGCAUGACGAUAGCUCGUCUUAU [Sensor-V1 #60] (Eterna round: R97, puzzle: Sensor, turn-off variant 1) | 85.8 | – | 102 | – | – | –
AAUUCACAAGCGAGAUCCCACAUGAGGAUCACCCAUGUGCUCGUCUUAUAAGGUACUGUGACGAGAGUCACGGUACC [Mat - Sensor, turn-off var - Eli Mod - D88] (Eterna round: R97, puzzle: Sensor, turn-off variant 1) | 15.7 | – | 16 | – | – | –
GCUUGUGUUGAGGAUAUGCGCCGGCUCGCUGGCGCAGAAGGCGGCACAUGAGGAUCACCCAUGUCAGUUCGCGU [salish99_ex6_r004_010] (Eterna round: R97, puzzle: Exclusion 6) | 428 | – | 38 | – | – | –
GAAUGAGAGCAGGAUAUCUUAUCAAUGUACGAAAGAGAAGGGCUCACAUGAGGAUCACCCAUGUGGUCCUAGAU [jl-ex6-4.66 jandersonlee mod] (Eterna round: R97, puzzle: Exclusion 6) | 576 | – | 78.8 | – | – | –
UCGCUCCGUGUAGGAUAUCGCCGUUCUAUUCGGCGAGAAGGACAUGAGGAUCACCCAUGUAUGUUAUUAUCACGUGUGGCGCGC [Design 55] (Eterna round: R96, puzzle: Exclusion NG 1) | 36 | 14 | 20.6 | – | – | –
AUACCAUGCCGCCUAAUAGCUUUUUGCUCGUCUUAUAAAACAUGAGGAUCACCCAUGUAAAACAUGUGGCGUGACCC [Maridi] (puzzle: Sensor v3, turn-off variant 2) | – | – | – | 12.5 | 163 | 97.4

Sequence | apparent KD of MS2 coat protein (input ligand: FMN 200 uM) [nM] | apparent KD of MS2 coat protein [1] [nM] | apparent KD of MS2 coat protein (input ligand: none) [nM] | apparent KD of MS2 coat protein [2] [nM] | apparent KD of MS2 coat protein [3] [nM] | apparent KD of MS2 coat protein [4] [nM]
GAUGAGGGAGUGAGGAUAUAUACCGGCUCACCGGAGUAGAAGGCACAUGAGGAUCACCCAUGUGACCUUAACCU [Eternabot (L2) Solution 92] (Eterna round: R97, puzzle: Brourd's mod of Exclusion 4) | 15.3 | – | 14.1 | – | – | –
CAGUACUGAGGAUAUACAUGAGGAUCACCCAUGUAAUAAGGUUAGGAAACUAACCUAUGUAGAAGGCAGUACUG [Eli x3 4.07] (Eterna round: R97, puzzle: Exclusion 3) | 13.2 | – | 14.7 | – | – | –
UAUUAGCAAGUGAGGUCCCACAUGAGGAUCACCCAUGUGCUCGUCUUAUAAGGUACUGUGACGAGAGUCACGGUACC [Mat - Sensor, turn-off var - Eli Mod - D52] (Eterna round: R97, puzzle: Sensor, turn-off variant 1) | 40.2 | – | 44.5 | – | – | –
UUUUUGGUAGGAUAUACAUGAGGAUCACCCAUGUCCCACCCGUUACCUAUGACCAUAUGUAGAAGGACCAUUUC [Exy#11] (Eterna round: R97, puzzle: Exclusion 3) | 24.6 | – | 21.3 | – | – | –
AGCGCAUGAGGAUAUACAUGAGGAUCACCCAUGUUCCAGUGAGCACUAGUGAGAGUCAGUAGAAGGUAUAGGGC [Cecete] (Eterna round: R97, puzzle: Exclusion 3) | 151 | – | 172 | – | – | –
ACCAGCAUACGGAGAUCCAACAUGAGGAUCACCCAUGUCUGGAAAGCUUUUUGCUUGUCUUAUCCUCCUCUGUGUGU [Design #5] (Eterna round: R97, puzzle: Sensor, turn-off variant 1) | 30.2 | – | 32.2 | – | – | –
GCCUUAUCCGUCAGGAUAUACAGCCGCUCCCUGUUGUAGAAGGGACAUGAGGAUCACCCAUGUACGUACCACCG [alecazam8] (Eterna round: R97, puzzle: Brourd's mod of Exclusion 4) | 28.1 | – | 29.2 | – | – | –
AGCUGUGGCCGAGGAUAUCUAACAAUCCCAACCGAAAUAUAAUCGGACAUGAGGAUCACCCAUGUAGAGAAGGCGGUCUCAGCA [Eli eng2 - 073] (Eterna round: R96, puzzle: Exclusion NG 2) | – | 137 | – | – | – | –
CCGAAACAUGAGGAUCACCCAUGUCAGGAUAUUCCAAAAUCGUCGAAAGACGAUAACAGAAGAAGGGACAUCGG [Fiskxlusion 1 - Jieux - Exclusion 1] (Eterna round: R97, puzzle: Exclusion 1) | 93.7 | – | 58 | – | – | –
ACAUGAGGAUCACCCAUGUCCGGCUGGUCCGUUUCGGCUGUCGAGGAUAUAGUUCGGUGUUCGCGCUAGAAGGCGGGAGCUGGC [Aenatbe mod 60] (Eterna round: R96, puzzle: Exclusion NG 3) | 206 | 68.7 | 114 | – | – | –
GGCCUUCCGCGAGCUUUUUACAUGAGGAUCACCCAUGUGGUUUUUAGUCUUAUGCCCGGGCCCGUGUGGGCCCGGGC [-33.7, -54.7, A 12%] (Eterna round: R97, puzzle: Sensor, turn-off variant 1) | 27.6 | – | 29.2 | – | – | –
AGUACUAACACGCAUGUGUUAGUACAAUAAGCUUGUGAAACAUGAGGAUCACCCAUGUCCUCAUAAGCUCGUCUUAU [salish99_TOv2_r3_068] (Eterna round: R96, puzzle: Sensor v3, turn-off variant 2) | 14.8 | 415 | 17.2 | – | – | –
CCUUUGUCAGGAUAUCGAAAAGGGAGGCCAAAGGCCUCCGGUGAGAAGGGACAUGAGGAUCACCCAUGUGAAAA [Soonbidibe] (puzzle: Exclusion 4) | – | – | – | 57.5 | – | –
UCGAUGUGAGGAUAUAUAUGCAGUAGUCCUUAUGUUUUAUAACUUGAGGAUCACCCAAGUAGAAGGCGCGACGU [JR_Ex2_Sub060] (Eterna round: R97, puzzle: Exclusion 2) | 49.2 | – | 39.5 | – | – | –
GGUCAGACGGUAGGAUAUCUAUAUCGAGUGACCCUUUCAUAACAUGAGGAUCACCCAUGUCGGUGGGAGAAGGGCCGUACGGCG [salish99_ExNG02_R04_007] (Eterna round: R96, puzzle: Exclusion NG 2) | 62.5 | 31.6 | 42.2 | – | – | –
CUUAGACAUGAGGAUCACCCAUGUGAGGAUAUGAUGCGAAUAAGGAAGGAAGAAAGCAUCAGAAGGCACAUAUG [Mat - Mod of Hyphema D25] (puzzle: Exclusion 1) | – | – | – | 139 | 161 | 104
UCGCUCCGUGUAGGAUAUCGCCGUACUAUGCGGCGAGAAGGACAUGAGGAUCACCCAUGUAUGUUAUUAUCACGCGUGGCGCAA [Design 61] (Eterna round: R96, puzzle: Exclusion NG 1) | 17.9 | 13.4 | 16.2 | – | – | –
